Assay results reported in patent US20170319711A1 (Pfizer, published 2017).

How the values were obtained:
[1] = molecular target: T1, mouse 5T4 (mouse, UniProt Q9Z0L0 32-361, limits assumed); test: ELISA (Example 7)
T1 sequence (looked up): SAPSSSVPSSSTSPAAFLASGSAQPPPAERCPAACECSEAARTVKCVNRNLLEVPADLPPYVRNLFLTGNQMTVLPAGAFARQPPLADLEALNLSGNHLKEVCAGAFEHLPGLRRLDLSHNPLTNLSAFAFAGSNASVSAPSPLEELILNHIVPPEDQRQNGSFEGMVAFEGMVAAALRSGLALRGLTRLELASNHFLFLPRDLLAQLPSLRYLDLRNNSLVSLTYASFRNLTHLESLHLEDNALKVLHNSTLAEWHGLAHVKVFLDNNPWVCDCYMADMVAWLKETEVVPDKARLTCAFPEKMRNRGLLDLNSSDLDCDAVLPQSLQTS

[2] = molecular target: T2, Human 5T4 antigen on cells (human, UniProt Q13641 32-420); test: flow cytometry, 10 ug/mL, A431 cells
T2 construct: also called 5T4 oncofetal antigen
T2 sequence: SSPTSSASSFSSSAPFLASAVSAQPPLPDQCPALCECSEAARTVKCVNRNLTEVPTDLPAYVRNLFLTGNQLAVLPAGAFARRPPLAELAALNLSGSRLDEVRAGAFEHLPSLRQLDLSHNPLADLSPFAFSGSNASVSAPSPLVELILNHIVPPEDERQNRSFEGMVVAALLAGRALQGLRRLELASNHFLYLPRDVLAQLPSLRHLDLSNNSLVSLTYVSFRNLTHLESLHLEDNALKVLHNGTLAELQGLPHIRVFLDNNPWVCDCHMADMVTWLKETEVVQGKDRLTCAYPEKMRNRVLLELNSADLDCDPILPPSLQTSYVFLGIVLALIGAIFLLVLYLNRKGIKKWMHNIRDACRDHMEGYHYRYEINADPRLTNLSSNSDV
Description: (§1) Cells expressing the 5T4 antigen, and the negative control Raji cells, are plated at a density of 500,000 cells/well on non-tissue culture treated 96 well plates and kept on ice. Dilutions of the A1 and A1-IgG4 antibodies or A1-mcMMAF ADC are made in 3% bovine serum albumin BSA in Dulbecco's phosphate buffered saline (DPBS) and added to the plate at a final concentration of 10 μg/mL. The plates are then incubated on ice for 1 hour followed by 2 washes. The secondary antibody, PE (phycoerythrin) conjugated Goat Anti-Human IgG Fc is added to the wells. After 30 minutes of incubation at 4 C, the mean fluorescence intensity is then measured using a flow cytometer.

[3] = molecular target: T2, Human 5T4 antigen on cells; test: flow cytometry, 10 ug/mL, PC3mm2 cells
Description: as §1

[4] = molecular target: T2, Human 5T4 antigen on cells; test: flow cytometry, 10 ug/mL, MDAMB468 cells
Description: as §1

[5] = molecular target: T3, human 5T4 ectodomain fused to the human IgG1-Fc domain (human, UniProt Q13641 32-355); test: SPR (BIAcore), immobilized 5T4-Fc, pH 6.0
T3 construct: also called hu5T4; 5T4-Fc; not shown: Fc constant region from human IgG1
T3 sequence: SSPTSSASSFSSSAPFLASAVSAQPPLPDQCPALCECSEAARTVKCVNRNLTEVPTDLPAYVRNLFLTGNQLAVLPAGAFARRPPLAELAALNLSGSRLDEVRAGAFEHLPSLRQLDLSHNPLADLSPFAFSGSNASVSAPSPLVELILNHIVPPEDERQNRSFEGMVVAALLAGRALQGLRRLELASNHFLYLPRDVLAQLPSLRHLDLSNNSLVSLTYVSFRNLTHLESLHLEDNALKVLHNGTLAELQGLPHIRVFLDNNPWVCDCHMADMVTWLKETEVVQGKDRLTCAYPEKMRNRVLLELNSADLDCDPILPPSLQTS
Description: (§2) Surface plasmon resonance (SPR) analysis is performed utilizing the BIAcore® to determine the affinity constants for A1-IgG1 and A1-IgG4 binding to either human or cynomolgus 5T4 at pH 6.0 and pH 7.4. BIAcore® technology utilizes changes in the refractive index at the surface layer upon binding of the huA1 antibody variants to the human 5T4 protein immobilized on the surface layer. Binding is detected by SPR of laser light refracting from the surface. Analysis of the signal kinetics on-rate and off-rate allows the discrimination between non-specific and specific interactions. The 5T4 proteins used for this analysis consisted of the human or cynomolgus 5T4 ectodomain fused to the human IgG1-Fc domain and low densities (45.1 and 45.4 RU for human and cynomolgus respectively) are immobilized onto a CM5 chip to accurately measure affinity constants.
(§3) The measurement of specific binding to the 5T4 ectodomain is attained by subtracting binding to a reference surface that had only human IgG1-Fc protein immobilized onto the CM5 chip at the same density to that on the 5T4-Fc surfaces. Next, various concentrations of A1, A1-IgG4, or A3 antibodies in either HBS-EP pH 7.4 or MES-EP pH 6.0 buffer are injected over the surface. The surface is regenerated two times with Glycine pH 1.7+0.05% Surfactant P20 (GE Healthcare, BR-1000-54) between injection cycles.

[6] = molecular target: T4, cynomolgus 5T4 ectodomain fused to the human IgG1-Fc domain (cynomolgus monkey; human, UniProt Q4R8Y9 35-355); test: SPR (BIAcore), immobilized 5T4-Fc, pH 6.0
T4 construct: range 1-355; also called cyno5T4; not shown: Fc constant region from human IgG1
T4 sequence (looked up): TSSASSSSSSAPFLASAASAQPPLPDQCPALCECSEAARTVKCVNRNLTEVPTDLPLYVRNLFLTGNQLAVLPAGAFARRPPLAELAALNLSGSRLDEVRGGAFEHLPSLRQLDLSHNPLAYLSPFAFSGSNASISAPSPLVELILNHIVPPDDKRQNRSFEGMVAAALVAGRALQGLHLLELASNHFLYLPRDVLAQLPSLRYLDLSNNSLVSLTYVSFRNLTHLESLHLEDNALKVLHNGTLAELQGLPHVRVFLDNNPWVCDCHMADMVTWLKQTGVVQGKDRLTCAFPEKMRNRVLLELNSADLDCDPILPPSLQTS
Description: as §2, §3

[7] = molecular target: T3, human 5T4 ectodomain fused to the human …; test: SPR (BIAcore), immobilized 5T4-Fc, pH 7.4
Description: as §2, §3

[8] = molecular target: T4, cynomolgus 5T4 ectodomain fused to the …; test: SPR (BIAcore), immobilized 5T4-Fc, pH 7.4
Description: as §2, §3

[9] = molecular target: T3, human 5T4 ectodomain fused to the human …; test: SPR (BIAcore), immobilized 5T4-Fc, pH 6.0; remark: listed apart in the source
Description: as §2, §3

[10] = molecular target: T4, cynomolgus 5T4 ectodomain fused to the …; test: SPR (BIAcore), immobilized 5T4-Fc, pH 6.0; remark: listed apart in the source
Description: as §2, §3

[11] = molecular target: T3, human 5T4 ectodomain fused to the human …; test: SPR (BIAcore), immobilized 5T4-Fc, pH 7.4; remark: listed apart in the source
Description: as §2, §3

[12] = molecular target: T4, cynomolgus 5T4 ectodomain fused to the …; test: SPR (BIAcore), immobilized 5T4-Fc, pH 7.4; remark: listed apart in the source
Description: as §2, §3

[13] = molecular target: T3, human 5T4 ectodomain fused to the human …; test: SPR (BIAcore), low-density 5T4-Fc surface, pH 6.0
Description: as §2, §3

[14] = molecular target: T4, cynomolgus 5T4 ectodomain fused to the …; test: SPR (BIAcore), low-density 5T4-Fc surface, pH 6.0
Description: as §2, §3

[15] = molecular target: T3, human 5T4 ectodomain fused to the human …; test: SPR (BIAcore), low-density 5T4-Fc surface, pH 7.4
Description: as §2, §3

[16] = molecular target: T4, cynomolgus 5T4 ectodomain fused to the …; test: SPR (BIAcore), low-density 5T4-Fc surface, pH 7.4
Description: as §2, §3

[17] = molecular target: T2, Human 5T4 antigen on cells; test: flow cytometry, 10 ug/mL, MDAMD361-DYT2 cells
Description: as §1

[18] = molecular target: T4, cynomolgus 5T4 ectodomain fused to the …; test: SPR (BIAcore), immobilized 5T4-Fc, pH not printed in this row (7.4 by the order of the table); row shifted one column to the left; pH 7.4
Description: as §2, §3

[19] = molecular target: T4, cynomolgus 5T4 ectodomain fused to the …; test: SPR (BIAcore), immobilized 5T4-Fc, pH not printed in this row (7.4 by the order of the table); row shifted one column to the left; pH 7.4 (pH cell missing; inferred from the order of the table)
Description: as §2, §3

binding result [1] | Mean Fluorescent Intensity [2] | Mean Fluorescent Intensity [3] | Mean Fluorescent Intensity [4] | Kd [5] [nM] | koff [5] [s⁻¹] | kon [5] [M⁻¹ s⁻¹] | Kd [6] [nM] | koff [6] [s⁻¹] | kon [6] [M⁻¹ s⁻¹] | Kd [7] [nM] | koff [7] [s⁻¹] | kon [7] [M⁻¹ s⁻¹] | Kd [8] [nM] | koff [8] [s⁻¹] | kon [8] [M⁻¹ s⁻¹] | Kd [9] [nM] | koff [9] [s⁻¹] | kon [9] [M⁻¹ s⁻¹] | Kd [10] [nM] | also measured | Binder
no binding | 3900 | 3400 | 3500 | 1.06 | 0.000459 | 431000 | 2.76 | 0.000641 | 233000 | 0.48 | 0.000132 | 275000 | 1.8 | 0.000273 | 151000 | 1.06 | 0.000459 | 431000 | 2.76 | koff [10]: 0.000641 s⁻¹; kon [10]: 233000 M⁻¹ s⁻¹; Kd [11]: 0.48 nM; koff [11]: 0.000132 s⁻¹; kon [11]: 275000 M⁻¹ s⁻¹; Kd [12]: 1.8 nM; koff [12]: 0.000273 s⁻¹; kon [12]: 151000 M⁻¹ s⁻¹; fold higher affinity relative to A1-IgG4 [13]: 1.5 fold; fold better binding compared to A1-IgG4 [14]: 1.7 fold; fold higher affinity relative to A1-IgG4 [15]: 1.2 fold; fold better binding compared to A1-IgG4 [16]: 1.2 fold; Mean Fluorescent Intensity [17]: 7000 | A1 (a humanized anti-5T4 IgG1 antibody) (antibody, also called A1-IgG1; A1 antibody) heavy: not shown light: DIQMTQSPSSLSASVGDRVTITCKASQSVSNDVAWYQQKPGKAPKLLIYFATNRYTGVPSRFSGSGYGTDFTLTISSLQPEDFATYYCQQDYSSPWTFGQGTKVEIKRTVAAPSVFIFPPSDEQLKSGTASVVCLLNNFYPREAKVQWKVDNALQSGNSQESVTEQDSKDSTYSLSSTLTLSKADYEKHKVYACEVTHQGLSSPVTKSFNRGEC
– | 2400 | 2100 | 2500 | 1.43 | 0.000893 | 626000 | 4.7 | 0.00095 | 202000 | 0.52 | 0.000172 | 328000 | 2.11 | 0.000382 | 181000 | – | – | – | – | Mean Fluorescent Intensity [17]: 5500 | A1-IgG4 (a humanized anti-5T4 IgG4 antibody) (antibody, Same variable domains as A1, human IgG4m heavy chain; also called A1-IgG4 Ab; Humanized A1 human IgG4m) heavy: not shown light: DIQMTQSPSSLSASVGDRVTITCKASQSVSNDVAWYQQKPGKAPKLLIYFATNRYTGVPSRFSGSGYGTDFTLTISSLQPEDFATYYCQQDYSSPWTFGQGTKVEIKRTVAAPSVFIFPPSDEQLKSGTASVVCLLNNFYPREAKVQWKVDNALQSGNSQESVTEQDSKDSTYSLSSTLTLSKADYEKHKVYACEVTHQGLSSPVTKSFNRGEC
no binding | – | – | – | – | – | – | – | – | – | – | – | – | – | – | – | 0.12 | 4.17e-05 | 351000 | 0.41 | koff [10]: 0.000187 s⁻¹; kon [10]: 458000 M⁻¹ s⁻¹; Kd [11]: 0.17 nM; koff [11]: 3.06e-05 s⁻¹; kon [11]: 179000 M⁻¹ s⁻¹; Kd [18]: 0.82 nM; koff [18]: 0.000162 s⁻¹; kon [19]: 198000 M⁻¹ s⁻¹ | A3 (a mouse/human chimeric antibody) (antibody, human IgG1, kappa, V domains shown, also called Chimeric A3; muA3-huIgG1) VH: EVQLVESGGGLVQPKGSLKLSCAASGFTFNTYAMNWVRQAPGKGLEWVARIRSKSNNYATYYADSVKDRFTISRDDSQSMLYLQMNNLKTEDTAMYYCVRQWDYDVRAMNYWGQGTLVTVSS VL: DIVMTQSHIFMSTSVGDRVSITCKASQDVDTAVAWYQQKPGQSPKLLIYWASTRLTGVPDRFTGSGSGTDFTLTISNVQSEDLADYFCQQYSSYPYTFGQGTKLEIKR
